Experiments:
[1] = biological target: SARS-CoV-2 Alpha variant spike ectodomain fused to resistin (SARS-CoV-2 | human) (UniProt P0DTC2); assay: SEC-MALS
[2] = biological target: SARS-CoV-2 Delta spike ectodomain without trimerization domain (SARS-CoV-2) (UniProt P0DTC2)

| Substance | stoichiometry N [1] | percent trimeric [2] [%] |
| --- | --- | --- |
| SARS-CoV-2 Alpha variant spike ectodomain fused to resistin (from UniProt P0DTC2 14-1213) | 6 | – |
| SARS-CoV-2 Delta spike ectodomain without trimerization domain (from UniProt P0DTC2 14-1213) (domain or fragment) | – | 30 to 50 |
